We go through one substance from patent US20120321697A1, “BPB-BASED CARGO DELIVERY SYSTEM” (GWANGJU INSTITUTE OF SCIENCE AND TECHNOLOGY, priority 2009, published 2012).

Assay [1] deals with T1, fibronectin EDB (Homo sapiens, UniProt P02751).
T1 construct: After transformation of pET28b vector carrying fibronectin ED-B into BL21 cells; His-tag (N); made in house; host or cells: E. coli BL21
As to the kind of experiment: Ka (1/Ms). The text has this:
(§1) Table printed on a drawing sheet, Fig. 11b
Head of the field: Ka (1/Ms)
(§2) The patent's description of the figure: FIG. 11a represents purification of the GST-BPB fusion protein.
(§3) FIG. 11b represents affinity of the GST-BPB to fibronectin EDB.
(§4) First copying reader's note: The name GST-BPB is printed only in Fig. 11a on this sheet, and the description gives Fig. 11b as its affinity to fibronectin EDB; the KD head says M but the cell prints nM.
(§5) Where the first naming reader finds the target: description_of_the_figure: FIG. 11b represents affinity of the GST-BPB to fibronectin EDB.

In assay [2] the target is T1, fibronectin EDB. Nature of the assay: Kd (1/s).
Text: as §1
Head of the field: Kd (1/s)
as §2, §3, §4, §5

No end group written: not given here.

T1 sequence (P02751 1271-1359): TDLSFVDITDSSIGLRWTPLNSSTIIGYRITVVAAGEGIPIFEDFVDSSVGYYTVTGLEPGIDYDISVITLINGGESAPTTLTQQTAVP

Take “GST-BPB: fusion protein of glutathione S-transferase and BPB HCSSAVGSWTWENGKWTWKGIIRLEQ recognizing fibronectin EDB ({GST}-HCSSAVGSWTWENGKWTWKGIIRLEQ)”: the “Ka (1/Ms)” value in the assay with fibronectin EDB [1] is 1.22 e4 1/Ms. For the same substance, the “Kd” value with fibronectin EDB [2] came out at 0.00347 s⁻¹.
